From PMC9482650, “Quantitative fragmentomics allow affinity mapping of interactomes” (Nature Communications, 2022)

T1: DLG3_3, Q92796
T1 sequence (Q92796 374-475, limits assumed, looked up): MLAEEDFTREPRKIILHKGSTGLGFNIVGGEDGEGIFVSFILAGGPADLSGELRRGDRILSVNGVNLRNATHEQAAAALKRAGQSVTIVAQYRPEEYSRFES

T2: RHPN1, Q8TCX5
T2 sequence (Q8TCX5 508-602, limits assumed, looked up): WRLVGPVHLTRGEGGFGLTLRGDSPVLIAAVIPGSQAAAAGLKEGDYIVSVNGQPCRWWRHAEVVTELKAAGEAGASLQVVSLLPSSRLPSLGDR

T3: APBA1_2, Q02410
T3 sequence (Q02410 742-832, limits assumed, looked up): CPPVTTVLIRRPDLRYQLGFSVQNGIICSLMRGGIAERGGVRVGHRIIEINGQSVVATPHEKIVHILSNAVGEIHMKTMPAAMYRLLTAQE

T4: DLG3_1, Q92796
T4 sequence (Q92796 125-227, limits assumed, looked up): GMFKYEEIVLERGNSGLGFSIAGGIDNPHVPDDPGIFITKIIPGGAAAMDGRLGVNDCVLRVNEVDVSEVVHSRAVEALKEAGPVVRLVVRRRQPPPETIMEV

T5: SYNJ2BP, P57105
T5 sequence (P57105 8-110, limits assumed, looked up): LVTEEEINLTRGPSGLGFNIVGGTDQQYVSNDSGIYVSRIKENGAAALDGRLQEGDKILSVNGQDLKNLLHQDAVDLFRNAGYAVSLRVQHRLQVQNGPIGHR

T6: GRIP1_3, Q9Y3R0
T6 sequence (Q9Y3R0 247-346, limits assumed, looked up): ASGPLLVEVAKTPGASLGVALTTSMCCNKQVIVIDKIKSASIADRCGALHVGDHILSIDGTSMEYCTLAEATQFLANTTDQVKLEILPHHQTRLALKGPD

T7: LNX2_2, Q8N448
T7 sequence (Q8N448 334-432, limits assumed, looked up): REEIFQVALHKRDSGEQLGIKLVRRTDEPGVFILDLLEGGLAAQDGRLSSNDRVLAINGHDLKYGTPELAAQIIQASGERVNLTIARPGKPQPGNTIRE

T8: GRIP1_5, Q9Y3R0
T8 sequence (Q9Y3R0 568-668, limits assumed, looked up): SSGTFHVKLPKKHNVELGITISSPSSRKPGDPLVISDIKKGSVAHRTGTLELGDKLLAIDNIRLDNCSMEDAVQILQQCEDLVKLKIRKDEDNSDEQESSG

T9: NHERF3_1, Q5T2W1
T9 sequence (Q5T2W1 4-100, limits assumed, looked up): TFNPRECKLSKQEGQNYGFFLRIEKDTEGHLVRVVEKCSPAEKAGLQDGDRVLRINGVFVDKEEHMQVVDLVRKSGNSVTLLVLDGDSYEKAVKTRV

T10: APBA1_1, Q02410
T10 sequence (Q02410 651-752, limits assumed, looked up): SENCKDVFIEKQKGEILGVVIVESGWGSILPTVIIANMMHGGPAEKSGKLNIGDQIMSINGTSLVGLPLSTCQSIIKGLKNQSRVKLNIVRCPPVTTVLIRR

T11: TIAM2, Q8IVF5
T11 sequence (Q8IVF5 885-986, limits assumed, looked up): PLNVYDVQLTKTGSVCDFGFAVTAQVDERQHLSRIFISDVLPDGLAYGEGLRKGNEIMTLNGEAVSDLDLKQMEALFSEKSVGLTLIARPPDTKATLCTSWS

T12: MPP2, Q14168
T12 sequence (Q14168 180-250, limits assumed, looked up): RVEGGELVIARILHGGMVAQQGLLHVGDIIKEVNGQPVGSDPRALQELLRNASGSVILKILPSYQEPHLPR


Columns and labels:
Assay in all cases: holdup assay
Set-up in all cases: key: below the threshold = too weak to quantify, mostly under pKd 3.1 to 4
Settings in all cases: plain residues with an end cap or a label only (N-terminal biotin on a linker: ado-ado)
DLG3_3, Q92796 = target: T1, DLG3_3, Q92796
GRIP2_4, Q9C0E4 = target: GRIP2_4, Q9C0E4
RHPN1, Q8TCX5 = target: T2, RHPN1, Q8TCX5
APBA1_2, Q02410 = target: T3, APBA1_2, Q02410
DLG4_1, P78352 = target: DLG4_1, P78352
DLG3_1, Q92796 = target: T4, DLG3_1, Q92796
MAGI1_1, Q96QZ7 = target: MAGI1_1, Q96QZ7
SYNJ2BP, P57105 = target: T5, SYNJ2BP, P57105
PDLIM1, O00151 = target: PDLIM1, O00151
GRIP1_3, Q9Y3R0 = target: T6, GRIP1_3, Q9Y3R0
LNX2_2, Q8N448 = target: T7, LNX2_2, Q8N448
GRIP1_5, Q9Y3R0 = target: T8, GRIP1_5, Q9Y3R0
NHERF3_1, Q5T2W1 = target: T9, NHERF3_1, Q5T2W1
APBA1_1, Q02410 = target: T10, APBA1_1, Q02410
TIAM2, Q8IVF5 = target: T11, TIAM2, Q8IVF5
SNX27, Q96L92 = target: SNX27, Q96L92
PICK1, Q9NRD5 = target: PICK1, Q9NRD5
NOS1, P29475 = target: NOS1, P29475
MPP2, Q14168 = target: T12, MPP2, Q14168
AHNAK1, Q09666 = target: AHNAK1, Q09666
IL16_3, Q14005 = target: IL16_3, Q14005
Inadl_8, Q8NI35 = target: Inadl_8, Q8NI35
GRIP2_5, Q9C0E4 = target: GRIP2_5, Q9C0E4
HTRA1, Q92743 = target: HTRA1, Q92743
FRMPD2_3, Q68DX3 = target: FRMPD2_3, Q68DX3
GRID2IP_2, A4D2P6 = target: GRID2IP_2, A4D2P6
Sequence of GRID2IP_2, A4D2P6 (A4D2P6 272-370): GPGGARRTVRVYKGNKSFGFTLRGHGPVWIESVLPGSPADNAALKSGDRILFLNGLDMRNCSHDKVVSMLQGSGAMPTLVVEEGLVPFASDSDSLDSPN

Sequence of GRIP2_4, Q9C0E4 (Q9C0E4 446-548): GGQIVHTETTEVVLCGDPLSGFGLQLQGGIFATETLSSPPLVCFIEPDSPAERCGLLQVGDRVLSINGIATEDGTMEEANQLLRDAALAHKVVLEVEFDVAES
Sequence of Inadl_8, Q8NI35 (Q8NI35 1425-1530): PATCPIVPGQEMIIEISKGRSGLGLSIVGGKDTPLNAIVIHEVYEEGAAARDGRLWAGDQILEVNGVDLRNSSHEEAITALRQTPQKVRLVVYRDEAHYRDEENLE
Sequence of AHNAK1, Q09666 (Q09666 4-100): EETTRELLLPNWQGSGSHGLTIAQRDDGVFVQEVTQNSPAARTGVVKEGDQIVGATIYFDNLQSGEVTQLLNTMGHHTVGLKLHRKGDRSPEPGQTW
Sequence of NOS1, P29475 (P29475 9-101): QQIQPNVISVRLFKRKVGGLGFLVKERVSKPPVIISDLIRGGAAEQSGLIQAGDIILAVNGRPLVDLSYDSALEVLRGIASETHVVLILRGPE
Sequence of PDLIM1, O00151 (O00151 1-87): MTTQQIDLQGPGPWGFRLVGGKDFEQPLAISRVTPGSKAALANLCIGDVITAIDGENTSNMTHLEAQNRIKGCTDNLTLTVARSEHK
Sequence of DLG4_1, P78352 (P78352 62-152): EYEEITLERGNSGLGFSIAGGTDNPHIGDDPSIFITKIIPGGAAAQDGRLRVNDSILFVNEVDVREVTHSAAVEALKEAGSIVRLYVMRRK
Sequence of PICK1, Q9NRD5 (Q9NRD5 17-115): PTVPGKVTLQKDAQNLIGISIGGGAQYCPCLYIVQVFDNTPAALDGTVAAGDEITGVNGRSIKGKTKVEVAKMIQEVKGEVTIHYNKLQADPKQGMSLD
Sequence of IL16_3, Q14005 (Q14005 1107-1207): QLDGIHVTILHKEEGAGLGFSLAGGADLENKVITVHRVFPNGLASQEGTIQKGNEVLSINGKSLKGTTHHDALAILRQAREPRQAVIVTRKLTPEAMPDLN
Sequence of MAGI1_1, Q96QZ7 (Q96QZ7 1-106): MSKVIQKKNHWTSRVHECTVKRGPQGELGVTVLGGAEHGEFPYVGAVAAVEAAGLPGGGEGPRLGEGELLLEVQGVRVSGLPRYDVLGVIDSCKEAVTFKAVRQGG
Sequence of HTRA1, Q92743 (Q92743 360-477): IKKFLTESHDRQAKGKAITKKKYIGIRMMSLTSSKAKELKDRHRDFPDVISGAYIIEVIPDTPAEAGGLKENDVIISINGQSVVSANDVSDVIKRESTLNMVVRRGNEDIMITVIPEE
Sequence of FRMPD2_3, Q68DX3 (Q68DX3 1073-1166): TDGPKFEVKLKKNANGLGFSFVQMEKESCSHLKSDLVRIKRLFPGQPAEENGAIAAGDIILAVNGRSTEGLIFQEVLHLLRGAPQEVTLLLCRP
Sequence of GRIP2_5, Q9C0E4 (Q9C0E4 544-642): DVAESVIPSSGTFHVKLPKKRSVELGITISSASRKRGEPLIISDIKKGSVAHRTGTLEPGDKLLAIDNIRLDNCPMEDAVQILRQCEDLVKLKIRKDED

Binder | pKd (DLG3_3, Q92796) | pKd (GRIP2_4, Q9C0E4) | pKd (RHPN1, Q8TCX5) | pKd (APBA1_2, Q02410) | pKd (DLG4_1, P78352) | pKd (DLG3_1, Q92796) | pKd (MAGI1_1, Q96QZ7) | pKd (SYNJ2BP, P57105) | pKd (PDLIM1, O00151) | pKd (GRIP1_3, Q9Y3R0) | pKd (LNX2_2, Q8N448) | pKd (GRIP1_5, Q9Y3R0) | pKd (NHERF3_1, Q5T2W1) | pKd (APBA1_1, Q02410) | pKd (TIAM2, Q8IVF5) | pKd (SNX27, Q96L92) | pKd (PICK1, Q9NRD5) | pKd (NOS1, P29475) | pKd (MPP2, Q14168) | pKd (AHNAK1, Q09666) | further results
YRLAQESGLV [ABCC6, O95255] | below the threshold | below the threshold | below the threshold | below the threshold | below the threshold | below the threshold | below the threshold | below the threshold | below the threshold | below the threshold | below the threshold | below the threshold | 3.76 | below the threshold | below the threshold | below the threshold | 4.19 | below the threshold | below the threshold | below the threshold | pKd (IL16_3, Q14005): below the threshold; pKd (Inadl_8, Q8NI35): below the threshold; pKd (GRIP2_5, Q9C0E4): below the threshold; pKd (HTRA1, Q92743): 3.98; pKd (FRMPD2_3, Q68DX3): below the threshold; pKd (GRID2IP_2, A4D2P6): below the threshold
SGSLKLMTTV [DACT1, Q9NYF0] | 4.2 | below the threshold | 4.58 | 3.5 | 5.02 | 4.45 | below the threshold | 4.3 | below the threshold | below the threshold | 4.63 | below the threshold | below the threshold | below the threshold | below the threshold | 4.35 | 4.09 | below the threshold | below the threshold | below the threshold | pKd (IL16_3, Q14005): below the threshold; pKd (Inadl_8, Q8NI35): 4.09; pKd (GRIP2_5, Q9C0E4): below the threshold; pKd (HTRA1, Q92743): 4.04; pKd (FRMPD2_3, Q68DX3): below the threshold; pKd (GRID2IP_2, A4D2P6): 3.97
ETQVTAETVI [TMEM225B, P0DP42] | below the threshold | below the threshold | 4.44 | below the threshold | 3.6 | below the threshold | below the threshold | 3.92 | below the threshold | below the threshold | 4.46 | below the threshold | 4.68 | below the threshold | 3.79 | 5.39 | 3.97 | 3.53 | below the threshold | below the threshold | pKd (IL16_3, Q14005): below the threshold; pKd (Inadl_8, Q8NI35): below the threshold; pKd (GRIP2_5, Q9C0E4): below the threshold; pKd (HTRA1, Q92743): 4.31; pKd (FRMPD2_3, Q68DX3): below the threshold; pKd (GRID2IP_2, A4D2P6): below the threshold
LKVPPEERLI [CRB2, Q5IJ48] | below the threshold | below the threshold | below the threshold | below the threshold | below the threshold | below the threshold | below the threshold | below the threshold | below the threshold | below the threshold | 3.72 | below the threshold | below the threshold | below the threshold | below the threshold | below the threshold | below the threshold | below the threshold | below the threshold | below the threshold | pKd (IL16_3, Q14005): below the threshold; pKd (Inadl_8, Q8NI35): below the threshold; pKd (GRIP2_5, Q9C0E4): below the threshold; pKd (HTRA1, Q92743): 4.18; pKd (FRMPD2_3, Q68DX3): below the threshold; pKd (GRID2IP_2, A4D2P6): below the threshold
